Consider seven molecules from publication PMC6050341, “Direct observation of DNA target searching and cleavage by CRISPR-Cas12a”.

Numbering of substitutions follows the chain as printed.

Series [1] addresses T1, AsCas12a WT (Acidaminococcus sp., UniProt U2UMQ6 1-1307). The experiment in a line: single-molecule FRET; 10 mM Mg2+; 20 nM RNP; transient S1 lifetime 0.13 +/- 0.01 s; stable stage II lifetime 94 s; smFRET: 10 mM Tris-HCl pH 8.0, 100 mM NaCl (100 mM KCl in Figs 4, 5), 10 mM MgCl2, 1 mM DTT, oxygen scavenger, 37 C; SpCas9 in NEB buffer 3.
The target in series [2] is T2, dAsCas12a (catalytically dead) (Acidaminococcus sp., UniProt U2UMQ6 1-1307, E993A). Nature of the series: single-molecule FRET; 10 mM Mg2+; 100 mM KCl; no specific binding events (t < 30 ms); smFRET: 10 mM Tris-HCl pH 8.0, 100 mM NaCl (100 mM KCl in Figs 4, 5), 10 mM MgCl2, 1 mM DTT, oxygen scavenger, 37 C; SpCas9 in NEB buffer 3. To be noted: protein: recombinant; tags: His tag implied (pET28b, Ni-NTA); label: crRNA 3' Cy5; DNA Cy3, 5' biotin; DNA 5' overhang 2 nt.

The target in series [3] is T2, dAsCas12a (catalytically dead). The experiment in a line: single-molecule FRET; 10 mM Mg2+; stable binding reached; smFRET: 10 mM Tris-HCl pH 8.0, 100 mM NaCl (100 mM KCl in Figs 4, 5), 10 mM MgCl2, 1 mM DTT, oxygen scavenger, 37 C; SpCas9 in NEB buffer 3. To be noted: protein: recombinant; tags: His tag implied (pET28b, Ni-NTA); label: crRNA 3' Cy5; DNA Cy3, 5' biotin; DNA 5' overhang 2 nt.

Series [4] deals with T1, AsCas12a WT. Nature of the series: single-particle tracking (TIRF); loose binding; drift rate rises with flow; smFRET: 10 mM Tris-HCl pH 8.0, 100 mM NaCl (100 mM KCl in Figs 4, 5), 10 mM MgCl2, 1 mM DTT, oxygen scavenger, 37 C; SpCas9 in NEB buffer 3.
For series [5], the target named is T1, AsCas12a WT. Nature of the series: single-molecule FRET; 10 mM Mg2+; 10 nM protein, 20 nM crRNA; smFRET: 10 mM Tris-HCl pH 8.0, 100 mM NaCl (100 mM KCl in Figs 4, 5), 10 mM MgCl2, 1 mM DTT, oxygen scavenger, 37 C; SpCas9 in NEB buffer 3.
Series [6] deals with T1, AsCas12a WT. Nature of the series: single-molecule FRET; 5 nM AsCas12a, 10 nM crRNA; no stable binding, only short events; smFRET: 10 mM Tris-HCl pH 8.0, 100 mM NaCl (100 mM KCl in Figs 4, 5), 10 mM MgCl2, 1 mM DTT, oxygen scavenger, 37 C; SpCas9 in NEB buffer 3.
Series [7] concerns the target T1, AsCas12a WT. The experiment in a line: single-particle tracking (TIRF); 1D diffusion, then stable stall at target about 50 s; smFRET: 10 mM Tris-HCl pH 8.0, 100 mM NaCl (100 mM KCl in Figs 4, 5), 10 mM MgCl2, 1 mM DTT, oxygen scavenger, 37 C; SpCas9 in NEB buffer 3.

B1: DNMT1 crRNA + target DNA WT (Fig 2) (mixed)
RNA: AAUUUCUACUCUUGUAGAUCUGAUGGUCCAUGUCUGUUACUC
DNA 1: TTTTTTCACTTGACAGGCGAGTAACAGACATGGACCATCAGGAAACATTAACGTACT
DNA 2: AGTACGTTAATGTTTCCTGATGGTCCATGTCTGTTACTCGCCTGTCAAGTG
modifications: internal amino-dT for dye
For the molecule B1, the binding result in the series with AsCas12a WT [1] is recorded as “binds”.

B2: DNMT1 crRNA + 0 match DNA (mixed)
RNA: B1 RNA
DNA 1: TTCACTTGACAGGCACTCGTCTCAACGCACACTGATAGAAACATACACGTACT
DNA 2: AGTACGTGTATGTTTCTATCAGTGTGCGTTGAGACGAGTGCCTGTCAAGTG
Consider B2, for which the binding result in series [2] is on record as “no binding”.

B3: DNMT1 crRNA + 17 match DNA (mixed)
RNA: B1 RNA
DNA 1: TTCACTTGACAGGCACTCGTCAGACATGGACCATCAGGAAACATTAACGTACT
DNA 2: B1 DNA 2 with T34A, T35C, A36G, C37A, T38G, C39T
For the molecule B3, in series [3], the binding result was “binds”.
Regarding AAUUUCUACUCUUGUAGAUCUGAUGGUCCAUGUCUGUUACUC (mixed) [DNMT1 crRNA + lambda DNA], the binding result with AsCas12a WT [4] was “binds”.

B4: DNMT1 crRNA + target WT (Fig 5) (mixed)
RNA: B1 RNA
DNA 1: GGATCTCTTAAGTCGTTGAGTAACAGACATGGACCATCAGGAAACACAGTGCAGTATTAGCACTTTTT
DNA 2: GTGCTAATACTGCACTGTGTTTCCTGATGGTCCATGTCTGTTACTCAACGACTTAAGAGATCC
Regarding B4, the binding result with AsCas12a WT [5] is reported as “binds”.

B5: DNMT1 crRNA + target w/o PAM (mixed)
RNA: B1 RNA
DNA 1: TTCACTTGACAGGCGAGTAACAGACATGGACCATCAGGAAGCATAAGCGTACT
DNA 2: B1 DNA 2 with T7C, A9T, T13C
For the molecule B5, in the series with AsCas12a WT [6], the binding result is given as “no binding”.
Consider AAUUUCUACUCUUGUAGAUACGGUCGAGCGUCAGCGUCCGGG (mixed) [80% crRNA + 21 kb DNA], for which, in the series with AsCas12a WT [7], the binding result is “binds”.
